Test results taken from publication PMC6307458, “Inhibition of Inflammatory Changes in Human Myometrial Cells by Cell Penetrating Peptide and Small Molecule Inhibitors of NFκB” (Frontiers in Immunology, 2018).

System: human myometrial cells
Test: Live cell confocal microscopy, delivery of rhodamine cargo
Conditions: live cell spinning disk confocal microscopy; primary human myometrial cells; 1, 3 and 10 μM; 60 min; 37°C, 5% CO2; serum-reduced media (0.1% FCS); 3 independent experiments
Method: Cells were washed in phosphate buffered saline and changed to serum-reduced media (0.1%FCS) for 18–24 h ([39]).
Initial images were collected to assess baseline cellular auto-fluorescence prior to the addition of varying concentrations of fluorophore-CPP/fluorophore- CPP-Cargo/fluorophore-control peptide combinations (see Table 1) that were ready made up in serum-reduced cell media. Further images were captured 60 min following application.
To make a thorough assessment of fluorescent uptake throughout whole cells, all images were captured as a series of slices in the Z plane (range 3–10 slices per area selected, each slice 0.54 μm apart) with the 40x objective using live cell spinning disk confocal microscopy (Andor Revolution XD coupled to an Olympus IX-81 inverted microscope; Andor Belfast UK). All images were digitally recorded with IQ2 software (Andor, Belfast, UK).

Substance	delivery of rhodamine fluorophore internal to the cells
Rhodamine-RQIKIWFQNRRMKW-Aca- TALDWSWLQTE [rhodamine Pen(43-56)–NBD]	demonstrated ability to enter myometrial cells
Rhodamine–RQIKIWFQNRRMKWKK [Penetratin, conjugated to rhodamine]	able to enter uterine cells
